From patent US7074765B2, “Synthetic peptide analogs of Arg-Pro-Pro-Gly-Phe as selective inhibitors of thrombin and thrombin activation of protease activated receptors 1 and 4” (The Regents of the University of Michigan, priority 2003, dated 2006)
Read-outs that look alike come from different tables or passages of the source. Ends that are not written are not given here.

Experiments:
[1] = molecular target: T1, thrombocytin cleavage of recombinant human PAR1 extracellular domain (Homo sapiens, UniProt P25116); experiment: Inhibition of thrombocytin-induced cleavage of rPAR1EC; assay type: biochemical; conditions: 16.7 nM thrombocytin, 45 min, 37° C.; below concentration that blocks the enzyme's proteolytic activity
T1 construct: A portion of the extracellular domain of human PAR1 (Ala^26-Ser^99) (rPAR1EC) was expressed in Escherichia coli; His10-DDDDK (pET19b) (N); made in house; host or cells: E. coli BL21(DE3), pET19b (rPAR1EC)
T1 sequence (P25116 26-99): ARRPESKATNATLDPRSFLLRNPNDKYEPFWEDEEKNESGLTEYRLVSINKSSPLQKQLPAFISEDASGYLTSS
Protocol: (§1) Thrombocytin is a snake venom enzyme that activates platelets by cleaving PAR1 at the thrombin cleavage site (Santos et al., FEBS Letters. 18, 3570–3577 (2000)). […] The ability of MAP4-rOicPGF to block thrombocytin cleavage of rPAR1EC was performed as follows. One μg of rPAR1EC in 0.01 mM Tris-HCL, 0.2 M NaCl, pH 8.0 was incubated at 37° C. for 15 min or 45 min with 1 nM of α-thrombin or 0.5 μg/mL thrombocytin (16.7 nM), respectively, in the absence or presence of 0.025 to 1 mM MAP4-rOicPGF. The reaction mixture was separated on SDS-PAGE and stained with Coomassie Brilliant Blue. The cleaved gel images were scanned using the software Scion Image, ScionCorp, Frederick, Md.

cyclic flow variations = conditions: Folt's model, canine; similar degree as aspirin or clopidogrel; cited from earlier work
[2] = molecular target: T2, recombinant protease activated receptor 1 extracellular domain (rPAR1EC) (Homo sapiens, UniProt P25116); experiment: Inhibition of RPPGF-biotin binding to rPAR1EC; conditions: 5 mM peptide, 50 μM RPPGF-biotin (FIG. 7); listed in decreasing order
T2 construct: A portion of the extracellular domain of human PAR1 (Ala^26-Ser^99) (rPAR1EC) was expressed in Escherichia coli; His10-DDDDK (pET19b) (N); made in house; host or cells: E. coli BL21(DE3), pET19b
T2 sequence (P25116 26-99): T1 sequence (P25116 26-99)

mouse carotid artery = conditions: cited from earlier work
mouse platelets = conditions: cited from earlier work
[3] = molecular target: T3, α-thrombin cleavage of recombinant extracellular fragment of human PAR1 (rPAR1EC) (Homo sapiens, UniProt P00734); experiment: Inhibition of α-thrombin-induced cleavage of rPAR1EC; assay type: biochemical
T3 construct: A portion of the extracellular domain of human PAR1 (Ala^26-Ser^99) (rPAR1EC) was expressed in Escherichia coli; with 1 nM of α-thrombin or 0.5 μg/mL thrombocytin (16.7 nM); His10-DDDDK (pET19b) (N); made in house; host or cells: E. coli BL21(DE3), pET19b (rPAR1EC)
Protocol: as §1

thrombin = thrombin (Homo sapiens, UniProt P00734); conditions: read-out: Ki (retrobinders to the active site of thrombin); cited from earlier work
coronary thrombosis = conditions: canine electrolytic injury model; similar to aspirin treatment; cited from earlier work
[4] = tested on: platelet activation and deposition; conditions: ex vivo balloon injury; similar to aspirin; cited from earlier work
[5] = molecular target: T4, SILPAPRGYPGQ, thrombin binding and cleaving region on human PAR4 (Homo sapiens, UniProt Q96RI0); experiment: Inhibition of SILPAPRGYPGQ-biotin binding to RPPGC; conditions: 10 micromolar biotinylated-SIL12; 0.001 to 5 mM peptide
T4 construct: host or cells: synthetic peptide
Protocol: Investigations were performed to determine if the compounds in the present invention interact with human PAR4. In FIG. 11, RPPGC (SEQ ID NO:10) was bound to plastic microtiter plates, After washing, biotinylated-[…] (SEQ ID NO:14) was incubated with the cuvette wells in the absence or presence of 0.001 to 5 mM RPPGF (SEQ ID NO:4), TH146, TH26, SIL12 (SEQ ID NO:9), or a scrambled peptide of RPPGF, FPRPG (Phe-Pro-Arg-Pro-Gly, SEQ ID NO:21). Peptide […]

[6] = molecular target: T5, recombinant extracellular fragment of human protease activated receptor 4 (rPAR4EC) (Homo sapiens, UniProt Q96RI0); experiment: Inhibition of RPPGF-biotin binding to rPAR4EC; conditions: 5 mM peptide; 50 μM RPPGF-biotin
T5 construct: starting with Gly^18, the first amino acid after the signal peptide is removed, and finishing with Arg^78; made in house; host or cells: E. coli BL21, pET19b-PAR4
T5 sequence (Q96RI0 18-78): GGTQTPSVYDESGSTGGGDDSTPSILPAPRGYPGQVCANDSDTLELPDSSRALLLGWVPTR
Excerpt: The extracellular fragment of human PAR4 has been expressed in bacteria. Human erythroleukemia (HEL) cells were used as a source for PAR4 mRNA. The level of PAR4 mRNA was substantially higher in HEL cells than washed human platelets. […] These primers give a 204 basepair fragment which code for a 61 amino acid hPAR4 protein starting with Gly^18, the first amino acid after the signal peptide is removed, and finishing with Arg^78, the last amino acid of the extracellular fragment (Xu et al. Proc. Natl. Acad. Sci. 95, 6642–6646 (1998)). The pET19b-PAR4 vector after cloning was used to transform BL21 cells to express the recombinant protein. The expressed recombinant protein was purified on a DEAE Sephadex followed by a nickel affinity column (the recombinant protein has a 10 His-tag on its amino terminal end). The isolated, recombinant extracellular domain of PAR4 (rPAREC) is about 15 kDa on 16.5% Tris-Tricine SDS-PAGE. The recombinant protein is recognized as being human PAR4 by detection with an antibody prepared from a peptide (S^41[…]^52) (SEQ ID NO:9) from human PAR4EC. Recombinant PAR4EC was linked to microtiter plate cuvette wells. Goat polyclonal antibody to human PAR1, PAR3, or PAR4 was incubated with the coated microtiter plate cuvette wells and antibody binding was detected. Only antibody to PAR4 detected rPAR4EC linked to the microtiter plate wells. […]

[7] = tested on: lipopolysaccharide-treated rats; conditions: infusion; cited from earlier work
[8] = tested on: normal human lung fibroblasts (NHLF); experiment: α-thrombin-induced calcium mobilization in fibroblasts; assay type: cell-based; conditions: 0.1 mM peptide; α-thrombin-induced calcium mobilization in fibroblasts
Protocol: The second assay developed to assess peptides from the combinatorial libraries uses inhibition of α-thrombin-induced calcium mobilization in fibroblasts. Normal human lung fibroblasts (NHLF) were purchased from Clonetics, San Diego, Calif., an affiliate of Bio-Wittaker, Walkersville, Md. The cytoplasmic free Ca^2+ concentration ([Ca^2+]i) was measured using the fluorescent Ca^2+ indicator fura-2 (Molecular Probes, Inc., Eugene, Oreg.). Suspension of fibroblasts in Hepes-Tyrode's buffer were loaded with fura-2 by incubation at 37° C. with 2 μM fura-2/acetoxymethyl ester for 45 minutes according to the method of Rasmussen et al., J. Biol. Chem. 268, 14322 (1993). The labeled fibroblasts were separated from excess probe by washing by centrifugation at 1000 rpm (180×g). Aliquots of the labeled fibroblasts were transferred into a quartz cuvette with a magnetic stirrer, which was then placed in a thermostatically controlled chamber at 37° C. in a fluorescence spectrophotometer (Perkin-Elmer LS50B spectrofluorometer, Chicago, Ill.). Reagents, test peptide, and α-thrombin (0.25–2 nM), were sequentially added directly to the cuvette. The excitation wavelengths varied between 340 and 380 nm. Fluorescence was measured by recording emitted light at 510 nm as reported by Fisher et al., Mol Pharm. 35, 195 (1989). The minimum emission was determined on a solubilized fibroblast sample in the presence of 10 mM EDTA; maximum emission was determined on the same sample with 10 mM Ca^2+ added. The intrafibroblast free Ca^2+ concentration was calculated by the method of Grykiewicz et al., J. Biol. Chem. 260, 3440 (1985). […] The KD for fura-2 was assumed to be 224 nM. Rmax and Rmin are the maximum and minimum fluorescence ratios measured at the end of the experiment, respectively; Sf2 and Sb2 are the fluorescence values at 380 nm in the absence and presence of saturating [Ca^2+], respectively. The reaction was monitored for 3–5 minutes.

Substance | concentration that blocks thrombocytin cleavage of rPAR1EC [1] [mM] | effect on cyclic flow variations (cyclic flow variations) | blocking of RPPGF-biotin binding to rPAR1EC by peptides [2] | time to thrombosis of the mouse carotid artery (mouse carotid artery) | mouse platelet aggregation (mouse platelets) | effect on α-thrombin cleavage of rPAR1EC ([3]; 1 nM α-thrombin, 15 min, 37° C.) | Ki (thrombin) [µM] | effect on coronary thrombosis (coronary thrombosis) | platelet activation and deposition [4] | blocking of biotinylated-SILPAPRGYPGQ binding to RPPGC [5] | blocking of RPPGF-biotin binding to rPAR4EC [6] | time to death [7] | effect on α-thrombin cleavage of rPAR1EC [3] | Ca^2^+ % Inhibition At 0.1 mM Peptide [8]
β-Ala-Lys-2Lys-4(Arg-Pro-Pro-Gly-Phe) (RPPGF; also: four copies on beta-Ala-Lys-2Lys-4 branched core) [MAP4-RPPGF, four-branched peptide of RPPGF on a β-alanine-lysine core] | 0.2 to 0.5 | prevents cyclic flow variations | blocked | delays the time to thrombosis | inhibits mouse platelet aggregation | prevents these enzymes from cleaving rPAR1EC | 1750 |  |  |  |  |  |  | 
rPPGF (RPPGF; not fully specified (residue 1); printed as rPPGF) [Arg-Pro-Pro-Gly-Phe, peptide of the RPPGF analog library] |  |  | blocked |  |  |  |  | prevents coronary thrombosis | reduced platelet activation and deposition | blocked | block | delays the time to death | prevents these enzymes from cleaving rPAR1EC | No Effect
